# Measurements from patent US20230128075A1.
# Experiments:
# [1] = molecular target: HSP70 (antigen; source and nucleotide state not stated) (Homo sapiens (Human)) (UniProt P0DMV8); test: Octet epitope binning, sandwich format on HSP70; table row N15F2-5 (named as competitor), column C92F3-5; the sheet does not say which of row and column was loaded first
# [2] = molecular target: HSP70 (antigen; source and nucleotide state not stated) (Homo sapiens (Human)) (UniProt P0DMV8); test: Octet epitope binning, sandwich format on HSP70; table row m77A (named as competitor), column C92F3-5; the sheet does not say which of row and column was loaded first
# [3] = molecular target: HSP70 (antigen; source and nucleotide state not stated) (Homo sapiens (Human)) (UniProt P0DMV8); test: Octet epitope binning, sandwich format on HSP70; table row C92F3-5, column C92F3-5 (self pair)
# [4] = molecular target: HSP70 (antigen; source and nucleotide state not stated) (Homo sapiens (Human)) (UniProt P0DMV8); test: Octet epitope binning, sandwich format on HSP70; table row m77A (named as competitor), column N15F2-5; the sheet does not say which of row and column was loaded first
# [5] = molecular target: HSP70 (antigen; source and nucleotide state not stated) (Homo sapiens (Human)) (UniProt P0DMV8); test: Octet epitope binning, sandwich format on HSP70; table row C92F3-5 (named as competitor), column N15F2-5; the sheet does not say which of row and column was loaded first
# [6] = molecular target: HSP70 (antigen; source and nucleotide state not stated) (Homo sapiens (Human)) (UniProt P0DMV8); test: Octet epitope binning, sandwich format on HSP70; table row N15F2-5, column N15F2-5 (self pair)
# Chain of HSP70 (antigen; source and nucleotide state not stated) (Homo sapiens (Human)) (P0DMV8 whole entry): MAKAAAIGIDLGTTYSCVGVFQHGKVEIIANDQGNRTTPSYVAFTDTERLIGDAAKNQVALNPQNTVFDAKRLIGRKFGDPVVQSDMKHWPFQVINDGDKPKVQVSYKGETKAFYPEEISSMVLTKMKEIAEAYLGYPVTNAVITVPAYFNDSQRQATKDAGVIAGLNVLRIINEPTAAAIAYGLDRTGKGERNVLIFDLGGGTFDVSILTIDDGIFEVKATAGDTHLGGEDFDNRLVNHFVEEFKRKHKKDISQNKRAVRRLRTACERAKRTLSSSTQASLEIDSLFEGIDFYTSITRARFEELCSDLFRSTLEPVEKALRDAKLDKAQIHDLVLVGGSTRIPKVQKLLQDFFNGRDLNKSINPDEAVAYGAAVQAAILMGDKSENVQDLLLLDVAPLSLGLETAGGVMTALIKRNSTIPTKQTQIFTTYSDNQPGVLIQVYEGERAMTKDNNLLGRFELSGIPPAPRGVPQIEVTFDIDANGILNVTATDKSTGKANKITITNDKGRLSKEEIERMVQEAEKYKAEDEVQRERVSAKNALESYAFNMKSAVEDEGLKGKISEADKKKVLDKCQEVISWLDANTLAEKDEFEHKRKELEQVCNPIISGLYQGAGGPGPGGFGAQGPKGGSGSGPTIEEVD
percent of maximal binding in the presence of the potentially competing antibody [1],percent of maximal binding in the presence of the potentially competing antibody [2],percent of maximal binding in the presence of the potentially competing antibody [3],percent of maximal binding in the presence of the potentially competing antibody [4],percent of maximal binding in the presence of the potentially competing antibody [5],percent of maximal binding in the presence of the potentially competing antibody [6],Substance
0.492,0.714,0,–,–,–,C92F3-5 (Fisher Scientific) (antibody)
–,–,–,0.738,0.489,0,N15F2-5 (Enzo Life Sciences) (antibody)
